Data taken from publication doi:10.1101/2020.11.12.379867.

Molecular target: GST-STG^9D (GST-fused C-terminus of STG with nine serine residues replaced with aspartate)
Assay: pull-down

amount of μ3 pulled down (STG^9A = 100%): 21%
B1: flag-tagged μ3 subunit of the adaptor protein AP-3 (μ3A) (natural protein)
chain: MIHSLFLINCSGDIFLEKHWKSVVSQSVCDYFFEAQEKAADVENVPPVISTPHHYLISIYRDKLFFVSVIQTEVPPLFVIEFLHRVADTFQDYFGECSEAAIKDNVVIVYELLEEMLDNGFPLATESNILKELIKPPTILRSVVNSITGSSNVGDTLPTGQLSNIPWRRAGVKYTNNEAYFDVVEEIDAIIDKSGSTVFAEIQGVIDACIKLSGMPDLSLSFMNPRLLDDVSFHPCIRFKRWESERVLSFIPPDGNFRLISYRVSSQNLVAIPVYVKHSISFKENSSCGRFDITIGPKQNMGKTIEGITVTVHMPKVVLNMNLTPTQGSYTFDPVTKVLAWDVGKITPQKLPSLKGLVNLQSGAPKPEENPNLNIQFKIQQLAISGLKVNRLDMYGEKYKPFKGVKYVTKAGKFQVRT
